For data set [1], the system named is K5 mutant ZFP (VSSR-DGAV-VSSR-VDYK-Gal4AD) N80A (Asn DNA-contacting residue of finger 2, DGNV to DGAV; position counted in SEQ 225) (Artificial Sequence). Kind of data set: EMSA. The conditions noted are these: at least 10-fold decrease in DNA-binding affinity for expected site; no ketoconazole resistance in yeast. On the technique in general: In EMSA bound probe runs differently from free probe, usually more slowly.

In data set [2] the test system is K5 ZFP (VSSR-DGNV-VSSR-VDYK-Gal4AD) (Artificial Sequence). Kind of data set: EMSA. The note with it: reference for the mutant comparison; binding of parent K5 implied by gel shift; exact probe not given, degenerate expected site.
Sequence of K5 ZFP (VSSR-DGNV-VSSR-VDYK-Gal4AD) (Artificial Sequence) (chain, as listed by the source): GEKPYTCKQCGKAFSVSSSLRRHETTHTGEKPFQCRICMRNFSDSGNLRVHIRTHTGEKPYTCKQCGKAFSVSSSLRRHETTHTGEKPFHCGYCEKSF

Sequence of K5 mutant ZFP (VSSR-DGAV-VSSR-VDYK-Gal4AD) N80A (Asn DNA-contacting residue of finger 2, DGNV to DGAV; position counted in SEQ 225) (Artificial Sequence) (chain, as listed by the source N80A): as the sequence (chain, as listed by the source) above, with N47A counted along it

Turning to “KATGTDAACGTD (double strand) [K5 expected target site]”, the binding signal in data set [1] is < 0.1 fold of K5; in data set [2] it was 1.

Source of the values: patent US20030194727.
